Numbering of substitutions follows the chain as printed. In names and notes the source's numbering stands.
B1: GST-tagged C-terminal fragment of Prp8 (1806-2413 aa) (domain or fragment)
chain: MKANPALYVLRERIRKGLQIYQSSVQEPFLNSSNYAELFNNDIKLFVDDTNVYRVTVHKTFEGNVATKAINGCIFTLNPKTGHLFLKIIHTSVWAGQKRLSQLAKWKTAEEVSALVRSLPKEEQPKQIIVTRKAMLDPLEVHMLDFPNIAIRPTELRLPFSAAMSIDKLSDVVMKATEPQMVLFNIYDDWLDRISSYTAFSRLTLLLRALKTNEESAKMILLSDPTITIKSYHLWPSFTDEQWITIESQMRDLILTEYGRKYNVNISALTQTEIKDIILGQNIKAPSVKRQKMAELEAARSEKQNDEEAAGASTVMKTKTINAQGEEIVVVASADYESQTFSSKNEWRKSAIANTLLYLRLKNIYVSADDFVEEQNVYVLPKNLLKKFIEISDVKIQVAAFIYGMSAKDHPKVKEIKTVVLVPQLGHVGSVQISNIPDIGDLPDTEGLELLGWIHTQTEELKFMAASEVATHSKLFADKKRDCIDISIFSTPGSVSLSAYNLTDEGYQWGEENKDIMNVLSEGFEPTFSTHAQLLLSDRITGNFIIPSGNVWNYTFMGTAFNQEGDYNFKYGIPLEFYNEMHRPVHFLQFSELAGDEELEAEQIDVFS
B2: GST-tagged Prp8-CTF with the RP mutation R2388K (domain or fragment)
chain: B1 chain with R583K
B3: GST-tagged Prp8-CTF with the RP mutation F2382L (domain or fragment)
chain: B1 chain with F577L

The binders below were run against full-length Brr2 with C-terminal calmodulin-binding domain (S. cerevisiae, UniProt P32639 1-2163) (assay: pull-down).
Sequence of full-length Brr2 with C-terminal calmodulin-binding domain (P32639 whole entry, the tested form may be a part): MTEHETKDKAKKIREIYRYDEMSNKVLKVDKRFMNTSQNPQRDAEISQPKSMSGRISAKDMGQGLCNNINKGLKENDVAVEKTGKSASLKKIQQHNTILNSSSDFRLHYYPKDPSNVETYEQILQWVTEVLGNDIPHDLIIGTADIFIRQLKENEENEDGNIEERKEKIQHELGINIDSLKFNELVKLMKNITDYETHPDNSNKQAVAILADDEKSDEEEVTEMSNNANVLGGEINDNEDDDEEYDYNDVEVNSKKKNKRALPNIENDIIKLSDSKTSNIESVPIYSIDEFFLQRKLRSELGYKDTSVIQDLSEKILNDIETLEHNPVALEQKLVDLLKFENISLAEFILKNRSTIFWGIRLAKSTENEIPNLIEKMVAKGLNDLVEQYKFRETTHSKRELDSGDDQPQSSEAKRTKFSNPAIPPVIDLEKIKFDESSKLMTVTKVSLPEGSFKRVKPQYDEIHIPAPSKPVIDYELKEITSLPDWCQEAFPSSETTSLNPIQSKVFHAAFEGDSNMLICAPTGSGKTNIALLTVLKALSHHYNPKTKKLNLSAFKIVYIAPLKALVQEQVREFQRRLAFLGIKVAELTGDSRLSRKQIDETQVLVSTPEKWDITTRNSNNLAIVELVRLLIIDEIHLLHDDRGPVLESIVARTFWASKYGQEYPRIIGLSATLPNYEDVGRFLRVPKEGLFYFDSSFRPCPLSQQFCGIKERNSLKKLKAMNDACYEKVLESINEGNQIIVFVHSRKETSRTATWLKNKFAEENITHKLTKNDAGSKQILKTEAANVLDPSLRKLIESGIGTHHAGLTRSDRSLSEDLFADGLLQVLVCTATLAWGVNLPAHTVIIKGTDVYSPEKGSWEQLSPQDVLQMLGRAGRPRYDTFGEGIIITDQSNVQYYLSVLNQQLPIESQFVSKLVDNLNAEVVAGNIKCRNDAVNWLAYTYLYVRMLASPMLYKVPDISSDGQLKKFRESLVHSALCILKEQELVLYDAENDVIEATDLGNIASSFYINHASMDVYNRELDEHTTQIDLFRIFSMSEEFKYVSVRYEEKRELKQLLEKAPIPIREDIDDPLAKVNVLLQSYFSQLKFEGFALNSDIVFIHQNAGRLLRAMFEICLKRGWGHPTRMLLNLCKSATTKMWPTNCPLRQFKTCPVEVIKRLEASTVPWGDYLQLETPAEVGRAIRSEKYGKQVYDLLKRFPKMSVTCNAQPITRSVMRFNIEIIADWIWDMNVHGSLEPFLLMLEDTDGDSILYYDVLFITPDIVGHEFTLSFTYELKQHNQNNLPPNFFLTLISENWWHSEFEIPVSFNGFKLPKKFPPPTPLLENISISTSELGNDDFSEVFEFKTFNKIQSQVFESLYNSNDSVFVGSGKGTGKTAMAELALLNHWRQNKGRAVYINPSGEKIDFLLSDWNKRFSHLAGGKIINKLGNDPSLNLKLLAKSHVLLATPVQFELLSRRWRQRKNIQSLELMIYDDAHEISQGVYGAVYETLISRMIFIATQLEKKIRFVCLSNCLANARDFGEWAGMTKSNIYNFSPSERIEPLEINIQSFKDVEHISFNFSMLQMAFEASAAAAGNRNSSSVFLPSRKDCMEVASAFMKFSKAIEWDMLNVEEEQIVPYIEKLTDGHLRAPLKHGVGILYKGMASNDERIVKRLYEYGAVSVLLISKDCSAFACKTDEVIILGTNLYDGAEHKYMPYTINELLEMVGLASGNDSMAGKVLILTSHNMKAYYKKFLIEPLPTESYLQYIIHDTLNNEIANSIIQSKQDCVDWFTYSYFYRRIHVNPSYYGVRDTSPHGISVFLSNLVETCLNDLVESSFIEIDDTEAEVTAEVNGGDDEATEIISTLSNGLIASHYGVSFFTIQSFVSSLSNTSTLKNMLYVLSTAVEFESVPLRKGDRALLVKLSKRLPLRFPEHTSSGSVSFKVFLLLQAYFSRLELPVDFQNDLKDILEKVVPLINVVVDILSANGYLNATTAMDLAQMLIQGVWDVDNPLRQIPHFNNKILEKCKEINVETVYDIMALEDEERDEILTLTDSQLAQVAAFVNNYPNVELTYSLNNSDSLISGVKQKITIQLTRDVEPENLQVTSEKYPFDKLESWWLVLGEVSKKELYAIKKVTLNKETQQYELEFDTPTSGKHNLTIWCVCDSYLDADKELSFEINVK

Binding result, binds:
B1, B2, B3

— paper PMC2707180 (Nature structural & molecular biology, 2008)
